{
  "source": "patent US20180022822A1",
  "about": "“NOVEL ANTI-FIBROBLAST ACTIVATION PROTEIN (FAP) BINDING AGENTS AND USES THEREOF” (Mabimmune Diagnostics AG, priority 2016, published 2018)",
  "molecules": {"B1": {"name": "NI-206.82C2: human-derived recombinant anti-FAP antibody; VH SEQ ID NO: 2 or 4 (PIMC), VL SEQ ID NO: 6 (antibody, V domains shown)", "VH": "QVQLQQSGPGLVKPSQTLSLTCAISGDSVSSNSVTWNWIRQSPSRGLEWLGRTYYRSKWYNDYAVSVKGRITINPDTSKNQFYLQLKSVTPEDAAVYYCARDSSILYGDYWGQGTLVTVSS", "VL": "QAVLTQPSSLSASPGASASLTCTLPSGINVGTYRIFWFQQKPGSPPQYLLSYKSDSDNHQGSGVPSRFSGSKDASANAGILLISGLQSEDEADYYCMIWHSSAWVFGGGTKLTVL"}},
  "key": {"[1]": {"biological_target": "T1, rhFAP and FAP SB9 oligopeptidase homologues (rhDPPIV, rhPOP/PREP, rhDPP8, rhDPP9) (Homo sapiens, UniProt Q12884)", "T1 construct": "purchased Sino Biologicals 10464-H07H", "T1 sequence (Q12884 26-760 limits assumed)": "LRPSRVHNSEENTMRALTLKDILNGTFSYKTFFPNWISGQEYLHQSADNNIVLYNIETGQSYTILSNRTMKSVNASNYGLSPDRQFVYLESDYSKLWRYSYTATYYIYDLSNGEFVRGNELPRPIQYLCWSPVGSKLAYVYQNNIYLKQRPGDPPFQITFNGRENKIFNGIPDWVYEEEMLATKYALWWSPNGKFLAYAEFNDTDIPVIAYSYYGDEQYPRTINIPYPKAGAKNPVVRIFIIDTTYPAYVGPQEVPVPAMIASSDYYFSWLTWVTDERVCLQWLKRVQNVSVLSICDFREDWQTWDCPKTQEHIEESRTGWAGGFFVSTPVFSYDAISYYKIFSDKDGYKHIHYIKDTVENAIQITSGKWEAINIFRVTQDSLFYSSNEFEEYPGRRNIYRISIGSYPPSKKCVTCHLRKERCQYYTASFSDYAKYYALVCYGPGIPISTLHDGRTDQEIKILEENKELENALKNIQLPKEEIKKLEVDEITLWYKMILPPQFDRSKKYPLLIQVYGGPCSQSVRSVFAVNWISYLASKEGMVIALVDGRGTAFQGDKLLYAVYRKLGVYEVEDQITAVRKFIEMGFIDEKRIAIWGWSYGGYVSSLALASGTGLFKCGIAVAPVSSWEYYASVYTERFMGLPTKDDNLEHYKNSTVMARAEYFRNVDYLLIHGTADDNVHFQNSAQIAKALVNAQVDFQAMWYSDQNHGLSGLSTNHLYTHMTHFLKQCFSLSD", "assay": "ELISA binding to SB9 oligopeptidase family enzymes", "conditions": "sandwich ELISA affinity (EC50) assays", "experimental": "To determine the binding efficiency and inhibitory ability of NI-206.82C2 against other members of the SB9 oligopeptidase family that have sequence similarity to FAP, indirect ELISA and inihibiton assays were performed on active enzyme targets. Active recombinant human enzymes evaluated in this assay include: Fibroblast Activation Protein (FAP; Sino Biologicals, 10464-H07H), Dipeptidyl Peptidase IV (DPPIV, BPS Bioscience 80040), Dipeptidyl Peptidase 8 (DPP8, BPS Bioscience 80080), Dipeptidyl Peptidase 9 (DPP9, BPS Bioscience 80080), and Prolyl Oligopeptidase/Prolyl Endopeptidase (POP/PREP, BPS Bioscience 80105). Each recombinant peptidase was expressed with a purification tag, and attached to the 96 well ELISA plate using either a mouse anti-Histidine antibody (CloneTech), or a mouse anti-Glutathione S-transferase (GST, Sino Biologicals, 111213-MM02) tag antibody. Each enzyme was validated to bind and remained active on the ELISA plate using enzyme specific fluorogenic substrates. H-Gly-Pro-AMC (ATT Bioquest, 13450) was used to validate the presence and activity of DPP4, DPP9, and DPP8. […] Following a washing step, bound antibody was detected using 3,3′,5,5′-Tetramethylbenzidine (TMB) substrate. The reaction was stopped after 10 minutes by adding 2N H2SO4 and the resulting change in optical density was quantified using an ELISA plate reader at […] absorbance (FIG. 7 E)."}, "[2]": {"tested_on": "MOPC315.BM multiple myeloma cells and tumor stroma", "assay": "immunofluorescence on murine multiple myeloma bone tissue", "set-up": "species or system mouse", "conditions": "Cy5 labelled antibody, bone sections", "experimental": "BALB/c mice were injected with 2×10^6 of the murine multiple myeloma cell line […] intravenously. BALB/c mice were injected with a vehicle-only control. Bone tissue was harvested and fixed in 4% PFA, decalcified in 10% EDTA (pH 7.4), embedded in paraffin before being sectioned (4 μm) and rehydrated. Then, CD138 mAb (Clone 281-2, BD Pharmingen) and Cy5 labelled NI-206.82C2 were used to identify MOPC315.BM.Luc cell infiltration, and NI-206.82C2 binding to these cells and surrounding stromal cells in the tissue sections. Stained tissue sections were then imaged using a fluorescent microscope (FIG. 13)."}, "[3]": {"biological_target": "T2, active recombinant human FAP (Homo sapiens, UniProt Q12884)", "T2 construct": "purchased Sino Biologicals 10464-H07H", "T2 sequence (Q12884 26-760 limits assumed)": "T1 sequence (Q12884 26-760 limits assumed)", "assay": "DQ-gelatin cleavage inhibition, active recombinant human FAP", "type": "biochemical", "experimental": "A black flat bottom standard 96-well ELISA plate was blocked for 1 hour at 37° C. using sterile blocking buffer: 5% bovine serum albumin (BSA) in phosphate buffered saline (PBS). The blocking buffer was removed and replaced with: 40 μL of fresh blocking buffer, 40 μL of antibody in PBS, 10 μL of 20 nM active recombinant human FAP (Sino Biologicals, 10464-H07H) in PBS, and 10 μL of DQ-Gelatin (Molecular Probes, D-12054) in PBS. Fluorescence intensity was measured at 485 nm excitation and 530 nm emission every 3 min over a total time of 45 min, while gently shaking the plate for twenty seconds before every measurement. To calculate the fractional activity, the steady state velocity (Δ 530 nm emission/Δ time) […].\nTo determine the inhibitory ability of NI-206.82C2 against active recombinant human FAP (Sino Biologicals, 10464-H07H) a black 96 well ELISA plate was blocked for 1 h at 37° C. with sterile 5% BSA in PBS. After removing the blocking solution, 40 uL of 12.5% BSA in PBS was added to each well. Then FAP-targeting agents (NI-206.82C2, F19, and Val-Boro-Pro (PT-100; Point therapeutics)) were added to the appropriate wells for a final concentration of 500, 10, 3.03, 1.01, 0.031, 0.001, and 0 nM. 10 uL of active recombinant human FAP was then added to all the wells for a final assay concentration of 20 nM. […]"}},
  "data": [
    {"molecule": "B1", "values": [
      {"measurement": "binding selectivity for rhFAP over SB9 oligopeptidase homologues", "setting": "[1]", "value": "selectively binds to recombinant human FAP (rhFAP) but not FAP SB9 oligopeptidase homologues"},
      {"measurement": "binding in the syngeneic MOPC315.BM mouse model", "setting": "[2]", "value": "binds to multiple myeloma cells and tumor stroma"},
      {"measurement": "potency for inhibiting active recombinant human FAP compared to Val-boro-Pro and F19", "setting": "[3]", "value": "higher potency"}
    ]}
  ]
}
